# In IntAct's records for PubMed 19805317:
# B1: Voltage-dependent calcium channel gamma-2 subunit (Homo sapiens), Q9Y698 (parent)
# chain: MGLFDRGVQMLLTTVGAFAAFSLMTIAVGTDYWLYSRGVCKTKSVSENETSKKNEEVMTHSGLWRTCCLEGNFKGLCKQIDHFPEDADYEADTAEYFLRAVRASSIFPILSVILLFMGGLCIAASEFYKTRHNIILSAGIFFVSAGLSNIIGIIVYISANAGDPSKSDSKKNSYSYGWSFYFGALSFIIAEMVGVLAVHMFIDRHKQLRATARATDYLQASAITRIPSYRYRYQRRSRSSSRSTEPSHSRDASPVGIKGFNTLPSTEISMYTLSRDPLKAATTPTATYNSDRDNSFLQVHNCIQKENKDSLHSNTANRRTTPV
# Variants of: B1
# Conditions: with gria1_rat Gria1, P19490
# gria1_rat Gria1, P19490, sequence (P19490 whole entry): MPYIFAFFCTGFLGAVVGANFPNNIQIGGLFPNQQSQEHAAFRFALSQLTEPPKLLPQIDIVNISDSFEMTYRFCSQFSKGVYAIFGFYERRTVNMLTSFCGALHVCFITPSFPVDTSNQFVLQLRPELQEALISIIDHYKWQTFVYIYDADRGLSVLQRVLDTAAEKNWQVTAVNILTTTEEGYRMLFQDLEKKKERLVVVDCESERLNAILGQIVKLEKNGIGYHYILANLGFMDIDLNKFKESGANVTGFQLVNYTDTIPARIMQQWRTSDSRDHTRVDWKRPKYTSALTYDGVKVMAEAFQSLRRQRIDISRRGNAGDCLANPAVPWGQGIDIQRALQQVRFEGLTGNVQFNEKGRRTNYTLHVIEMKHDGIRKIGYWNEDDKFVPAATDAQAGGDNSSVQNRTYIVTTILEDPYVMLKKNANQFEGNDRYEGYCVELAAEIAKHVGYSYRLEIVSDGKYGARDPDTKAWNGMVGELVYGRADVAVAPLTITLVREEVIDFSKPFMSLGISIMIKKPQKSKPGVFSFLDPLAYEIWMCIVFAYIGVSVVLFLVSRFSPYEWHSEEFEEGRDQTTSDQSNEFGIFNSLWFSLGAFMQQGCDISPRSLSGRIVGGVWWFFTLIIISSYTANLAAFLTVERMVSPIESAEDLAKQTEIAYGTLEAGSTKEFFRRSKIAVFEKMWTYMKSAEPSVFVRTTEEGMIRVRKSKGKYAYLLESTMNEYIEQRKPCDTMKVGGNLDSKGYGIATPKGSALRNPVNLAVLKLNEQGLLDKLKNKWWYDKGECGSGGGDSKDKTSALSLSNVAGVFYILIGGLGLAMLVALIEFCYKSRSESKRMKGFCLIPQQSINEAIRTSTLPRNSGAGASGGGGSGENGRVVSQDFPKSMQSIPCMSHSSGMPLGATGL
row,Variant,effect of a mutation on the interaction
1,MGLFDRGVQMLLTTVGAFAAFSLMTIAVGTDYWLYSRGVCKTKSVSENETSKKNEEVMTHSGLWRTCCLEGNFKGLCKQIDHFPEDADYEADTAEYFLRAVRASSIFPILSVILLFMGGLCIAASEFYKTRHNIILSAGIFFVSAGLSNIIGIIVYISANAGDPSKSDSKKNSYSYGWSFYFGALSFIIAEMVGVLAVHMFIDRHKQLRATARATDYLQASAITRIPSYRYRYQRRSRSSSRSTEPSHSRDASPVGIKGFNTLPSTEISMYTLSRDPLKAATTPTATYNSDRDNSFLQVHNSIQKENKDSLHSNTANRRTTPV [C302S],decreasing interaction
